Experimental findings from patent US20210147504A1 are described below.

Test [1] deals with rat CNP receptor (NPR-B) (rat) (UniProt P16067). The test is described as follows: cell-based or functional assay.
Test [2] deals with rat ANP receptor (NPR-A) (rat) (UniProt P18910). The test is described as follows: cell-based or functional assay.
Chain of rat ANP receptor (NPR-A) (rat) (P18910 29-1057): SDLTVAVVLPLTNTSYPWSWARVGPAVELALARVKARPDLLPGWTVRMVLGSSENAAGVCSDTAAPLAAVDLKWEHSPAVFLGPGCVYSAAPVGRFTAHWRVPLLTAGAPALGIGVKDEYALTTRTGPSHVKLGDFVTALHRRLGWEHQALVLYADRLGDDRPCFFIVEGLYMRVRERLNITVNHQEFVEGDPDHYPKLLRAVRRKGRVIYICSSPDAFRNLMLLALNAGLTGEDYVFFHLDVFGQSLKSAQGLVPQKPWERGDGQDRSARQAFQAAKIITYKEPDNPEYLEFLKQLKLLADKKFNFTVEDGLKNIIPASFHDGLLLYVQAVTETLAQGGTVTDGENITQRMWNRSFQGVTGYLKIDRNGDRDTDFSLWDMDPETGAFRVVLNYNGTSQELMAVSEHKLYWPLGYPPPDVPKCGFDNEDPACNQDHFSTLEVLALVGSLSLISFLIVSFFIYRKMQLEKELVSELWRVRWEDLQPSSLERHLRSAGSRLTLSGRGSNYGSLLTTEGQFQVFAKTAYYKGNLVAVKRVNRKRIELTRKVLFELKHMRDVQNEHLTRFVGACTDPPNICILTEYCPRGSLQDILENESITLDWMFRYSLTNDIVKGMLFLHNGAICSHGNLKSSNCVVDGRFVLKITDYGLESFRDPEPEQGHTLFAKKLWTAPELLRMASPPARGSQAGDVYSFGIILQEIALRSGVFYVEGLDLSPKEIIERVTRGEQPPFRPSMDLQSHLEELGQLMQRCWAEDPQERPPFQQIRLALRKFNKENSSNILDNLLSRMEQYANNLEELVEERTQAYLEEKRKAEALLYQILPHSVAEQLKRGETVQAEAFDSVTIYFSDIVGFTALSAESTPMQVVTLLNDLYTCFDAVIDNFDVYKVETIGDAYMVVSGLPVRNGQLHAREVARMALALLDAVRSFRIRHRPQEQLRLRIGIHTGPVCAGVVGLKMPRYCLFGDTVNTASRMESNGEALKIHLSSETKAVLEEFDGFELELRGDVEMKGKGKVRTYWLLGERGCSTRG

Chain of rat CNP receptor (NPR-B) (rat) (P16067 17-1047): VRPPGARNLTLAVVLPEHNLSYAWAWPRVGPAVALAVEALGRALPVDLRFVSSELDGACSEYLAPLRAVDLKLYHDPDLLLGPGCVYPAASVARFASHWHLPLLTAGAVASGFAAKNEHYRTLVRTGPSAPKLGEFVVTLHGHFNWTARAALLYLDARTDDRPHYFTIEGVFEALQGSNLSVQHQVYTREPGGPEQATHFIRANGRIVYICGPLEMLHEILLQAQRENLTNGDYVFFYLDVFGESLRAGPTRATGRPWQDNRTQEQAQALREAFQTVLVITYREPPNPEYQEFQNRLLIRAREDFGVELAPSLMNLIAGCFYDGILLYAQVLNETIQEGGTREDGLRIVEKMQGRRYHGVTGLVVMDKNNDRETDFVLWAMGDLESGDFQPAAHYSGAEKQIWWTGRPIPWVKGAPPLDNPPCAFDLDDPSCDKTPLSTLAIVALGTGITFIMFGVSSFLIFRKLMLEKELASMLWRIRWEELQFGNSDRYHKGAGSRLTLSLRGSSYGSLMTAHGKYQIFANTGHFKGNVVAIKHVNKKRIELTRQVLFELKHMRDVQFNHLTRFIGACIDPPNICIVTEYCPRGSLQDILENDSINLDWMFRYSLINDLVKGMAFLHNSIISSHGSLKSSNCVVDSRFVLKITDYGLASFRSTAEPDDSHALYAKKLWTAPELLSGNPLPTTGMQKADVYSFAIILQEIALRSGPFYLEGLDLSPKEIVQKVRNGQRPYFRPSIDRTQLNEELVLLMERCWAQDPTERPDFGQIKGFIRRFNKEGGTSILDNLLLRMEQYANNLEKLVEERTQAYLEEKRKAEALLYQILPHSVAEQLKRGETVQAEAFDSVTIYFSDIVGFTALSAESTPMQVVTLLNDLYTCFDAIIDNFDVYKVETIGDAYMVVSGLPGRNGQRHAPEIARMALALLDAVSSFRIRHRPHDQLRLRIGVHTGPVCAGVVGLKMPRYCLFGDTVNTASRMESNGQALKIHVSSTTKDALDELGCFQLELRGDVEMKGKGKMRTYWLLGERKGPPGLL

GLSKGCFGLKLDRIGSMSGLGC (peptide, from a related filing) [CNP (Bachem, H-1296)] registered an EC50, luminescence signal of rat NPR-B cGMP reporter cell line in test [1] of 0.024 nM.

For the molecule SLRRSSCFGGRIDRIGAQSGLGCNSFRY (peptide, from a related filing) [ANP (Bachem, H-2100)], the EC50, fluorescence signal of rat NPR-A cGMP reporter CHO cell line (GCaMP6/CNGA2) in test [2] turned out to be 0.22 nM.
